From patent US20220281936

Recombinant mouse matrix metalloproteinase-2 (MMP2), sequence (chain, as listed by the source): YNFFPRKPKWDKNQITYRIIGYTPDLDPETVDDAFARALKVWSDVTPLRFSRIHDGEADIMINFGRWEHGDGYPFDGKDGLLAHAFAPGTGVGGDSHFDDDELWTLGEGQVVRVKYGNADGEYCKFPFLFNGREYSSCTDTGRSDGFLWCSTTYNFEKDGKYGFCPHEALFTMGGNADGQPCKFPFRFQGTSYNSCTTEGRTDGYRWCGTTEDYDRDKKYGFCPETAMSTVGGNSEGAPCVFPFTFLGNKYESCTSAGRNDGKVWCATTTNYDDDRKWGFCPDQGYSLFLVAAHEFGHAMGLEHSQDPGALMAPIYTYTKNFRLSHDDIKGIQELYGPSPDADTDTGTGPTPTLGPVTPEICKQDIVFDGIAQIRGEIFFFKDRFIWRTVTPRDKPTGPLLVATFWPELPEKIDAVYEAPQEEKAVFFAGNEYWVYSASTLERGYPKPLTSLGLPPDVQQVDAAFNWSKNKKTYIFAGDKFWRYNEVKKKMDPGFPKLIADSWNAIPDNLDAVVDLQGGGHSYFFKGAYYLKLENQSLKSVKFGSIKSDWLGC
Mouse IL12 (unmodified), sequence (chain, as listed by the source, chain 1 of 2): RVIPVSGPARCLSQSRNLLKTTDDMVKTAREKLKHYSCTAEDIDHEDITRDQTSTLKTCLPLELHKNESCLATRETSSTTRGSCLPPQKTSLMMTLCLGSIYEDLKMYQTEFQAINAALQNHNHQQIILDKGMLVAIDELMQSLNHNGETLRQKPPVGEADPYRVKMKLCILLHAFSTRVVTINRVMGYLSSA
Mouse IL12 (unmodified), sequence (chain, as listed by the source, chain 2 of 2): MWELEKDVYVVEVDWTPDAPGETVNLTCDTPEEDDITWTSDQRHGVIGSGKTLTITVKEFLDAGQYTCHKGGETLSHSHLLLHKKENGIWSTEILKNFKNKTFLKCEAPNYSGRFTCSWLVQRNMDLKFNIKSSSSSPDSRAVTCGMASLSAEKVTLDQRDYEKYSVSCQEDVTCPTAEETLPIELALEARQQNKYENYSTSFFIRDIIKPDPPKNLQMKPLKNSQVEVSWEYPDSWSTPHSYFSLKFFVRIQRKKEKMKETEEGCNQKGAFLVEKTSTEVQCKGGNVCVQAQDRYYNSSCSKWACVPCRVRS
IL12Rβ1-LS-IL12, sequence (chain, as listed by the source, chain 1 of 2): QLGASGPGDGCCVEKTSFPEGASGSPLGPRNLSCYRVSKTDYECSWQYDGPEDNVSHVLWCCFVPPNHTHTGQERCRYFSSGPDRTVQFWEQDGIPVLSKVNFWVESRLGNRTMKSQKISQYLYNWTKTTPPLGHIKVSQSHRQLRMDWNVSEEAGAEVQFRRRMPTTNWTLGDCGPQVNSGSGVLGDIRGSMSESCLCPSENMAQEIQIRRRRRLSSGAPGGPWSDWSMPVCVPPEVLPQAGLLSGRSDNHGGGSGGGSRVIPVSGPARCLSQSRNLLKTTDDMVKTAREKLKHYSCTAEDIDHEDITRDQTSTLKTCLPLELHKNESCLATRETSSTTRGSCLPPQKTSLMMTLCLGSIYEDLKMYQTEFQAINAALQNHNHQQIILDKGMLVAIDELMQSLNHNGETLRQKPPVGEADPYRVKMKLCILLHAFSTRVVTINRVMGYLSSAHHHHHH
IL12Rβ1-LS-IL12, sequence (chain, as listed by the source, chain 2 of 2): as the sequence (chain, as listed by the source, chain 2 of 2) above

Substance | proteolytic cleavage, SDS-PAGE (Mouse IL12 (unmodified)) | proteolytic cleavage, SDS-PAGE (IL12Rβ1-LS-IL12) | proteolytic cleavage, SDS-PAGE (30 min, 37 C) (IL12Rβ1-VP-IL12)
Recombinant human urokinase plasminogen activator (uPA) | These enzymes had no effect on IL12 itself | IL12Rβ1-LS-IL12 containing LSGRSDNH (SEQ ID NO:49) substrate was cleaved by uPA | 
Recombinant mouse matrix metalloproteinase-2 (MMP2) | These enzymes had no effect on IL12 itself |  | MMP2 and MMP9 fully cleaved the IL12Rβ1 portion, yielding IL12 heterodimer (-60 kDa)
